Data on one molecule can be found in publication PMC2148137 (The Journal of Cell Biology, 1998).

The target of this experiment is T1, GST–Kic1p full-length fusion (S. cerevisiae, UniProt P38692 1-1080).
T1 sequence (looked up): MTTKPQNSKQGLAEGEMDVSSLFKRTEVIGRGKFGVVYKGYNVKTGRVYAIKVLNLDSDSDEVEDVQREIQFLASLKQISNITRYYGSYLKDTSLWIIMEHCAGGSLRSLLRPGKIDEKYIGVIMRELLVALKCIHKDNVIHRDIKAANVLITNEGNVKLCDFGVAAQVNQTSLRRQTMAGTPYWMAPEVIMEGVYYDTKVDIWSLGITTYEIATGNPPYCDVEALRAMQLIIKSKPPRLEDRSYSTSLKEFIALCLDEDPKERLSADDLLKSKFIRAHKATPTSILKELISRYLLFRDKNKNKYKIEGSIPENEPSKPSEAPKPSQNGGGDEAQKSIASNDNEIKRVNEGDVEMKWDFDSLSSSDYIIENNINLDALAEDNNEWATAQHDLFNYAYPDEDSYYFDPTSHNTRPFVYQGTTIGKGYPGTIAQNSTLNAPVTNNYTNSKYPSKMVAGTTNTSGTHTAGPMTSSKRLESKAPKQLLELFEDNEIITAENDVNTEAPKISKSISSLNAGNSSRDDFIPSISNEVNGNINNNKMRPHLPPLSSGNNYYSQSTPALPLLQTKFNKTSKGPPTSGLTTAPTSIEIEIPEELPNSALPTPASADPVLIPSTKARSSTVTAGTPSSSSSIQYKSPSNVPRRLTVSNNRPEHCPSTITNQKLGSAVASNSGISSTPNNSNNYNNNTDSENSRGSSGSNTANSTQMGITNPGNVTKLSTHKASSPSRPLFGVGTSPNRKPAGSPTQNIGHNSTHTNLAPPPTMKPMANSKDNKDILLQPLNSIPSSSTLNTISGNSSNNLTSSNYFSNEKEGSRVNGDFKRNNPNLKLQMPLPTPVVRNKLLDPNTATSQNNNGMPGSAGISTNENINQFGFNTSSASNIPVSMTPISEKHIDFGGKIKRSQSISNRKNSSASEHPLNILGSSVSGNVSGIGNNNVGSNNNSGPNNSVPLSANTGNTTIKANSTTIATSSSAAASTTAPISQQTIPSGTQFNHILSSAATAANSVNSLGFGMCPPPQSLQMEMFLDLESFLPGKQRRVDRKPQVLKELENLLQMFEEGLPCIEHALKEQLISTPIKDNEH
Briefly: far-Western, overlay or dot blot.

B1: radiolabeled Cdc31p purified from bacteria (natural protein, S. cerevisiae, UniProt P06704 1-161, looked up)
chain: MSKNRSSLQSGPLNSELLEEQKQEIYEAFSLFDMNNDGFLDYHELKVAMKALGFELPKREILDLIDEYDSEGRHLMKYDDFYIVMGEKILKRDPLDEIKRAFQLFDDDHTGKISIKNLRRVAKELGETLTDEELRAMIEEFDLDGDGEINENEFIAICTDS
modifications: radiolabeled
In the case of B1, the binding result is given as “binds”.
